Measurements published in paper PMC11528095, “PCDH10 is a neuronal receptor for western equine encephalitis virus” (Cell Research, 2024).

Biological target: T1, His-tagged soluble human PCDH10 (human)
T1 construct: also called sohPCDH10; sohPCDH10-His
Assay: BLI
Conditions: both partners purified

B1: WEEV virus-like particles (spike E2-E1) (complex)
chain 1: SITDDFTLTSPYLGFCPYCRHSAPCFSPIKIENVWDESDDGSIRIQVSAQFGYNQAGTADVTKFRYMSFDHDHDIKEDSMDKIAISTSGPCRRLGHKGYFLLAQCPPGDSVTVSITSGASENSCTVEKKIRRKFVGREEYLFPPVHGKLVKCHVYDHLKETSAGYITMHRPGPHAYKSYLEEASGEVYIKPPSGKNVTYECKCGDYSTGIVSTRTKMNGCTKAKQCIAYKSDQTKWVFNSPDLIRHTDHSVQGKLHIPFRLTPTVCPVPLAHTPTVTKWFKGITLHLTATRPTLLTTRKLGLRADATAEWITGTTSRNFSVGREGLEYVWGNHEPVRVWAQESAPGDPHGWPHEIIIHYYHRHPVYTVIVLCGVALAILVGTASSAACIAKARRDCLTPYALAPNATVPTALAVLCCIRPTNA
chain 2: FEHATTVPNVPGIPYKALVERAGYAPLNLEITVVSSELTPSTNKEYVTCRFHTVIPSPQVKCCGSLECKASSKADYTCRVFGGVYPFMWGGAQCFCDSENTQLSEAYVEFAPDCTIDHAVALKVHTAALKVGLRIVYGNTTAHLDTFVNGVTPGSSRDLKVIAGPISAAFSPFDHKVVIRKGLVYNYDFPEYGAMKPGAFGDIQASSLDATDIVARTDIRLLKPSVKNIHVPYTQAVSGYEMWKNNSGRPLQETAPFGCKIEVEPLRASNCAYGHIPISIDIPDAAFVRSSESPTILEVSCTVADCIYSADFGGSLTLQYKADREGHCPVHSHSTTAVLKEATTHVTAVGSITLHFSTSSPQANFIVSLCGKKTTCNAECKPPADHIIGEPHKVDQEFQAAVSKTSWNWLLALFGGASSLIVVGLIVLVCSSMLINTRR
Q: How did the Kd turn out when B1 was run?
A: Its Kd is 4.66 nM.
